Substitutions are numbered along the chain they refer to.
B1: antibody 310 (antibody, V domains shown)
VH: EVQLVESGGGLVQPGGSLRLSCAASGFTFSSYWMSWVRQAPGKGLEWVANIKQDGSEKYYVDSVKGRFTISRDNAKNSLYLQMNSLRAEDTAVYYCARVGSSSWYFDYWGQGTLVTVSS
VL: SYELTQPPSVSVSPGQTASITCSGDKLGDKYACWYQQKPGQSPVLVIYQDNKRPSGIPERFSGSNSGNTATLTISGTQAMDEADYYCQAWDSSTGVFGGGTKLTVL
B2: antibody 336 (antibody, V domains shown)
VH: QVQLVESGGGVVQPGRSLRLSCAASGFTFSSYAMHWVRQAPGKGLEWVAVISYDGSNKYYADSVKGRFTISRDNSKNTLYLQMNSLRAEDTAVYYCARAQTDYYDSSGWFDYWGQGTLVTVSS
VL: SYELTQPPSVSVSPGQTARITCSGDALPKQYAYWYQQKPGQAPVLVIYKDSERPSGIPERFSGSSSGTTVTLTISGVQAEDEADYYCQSADSSGTPHWVFGGGTKLTVL
B3: antibody 357 (antibody, V domains shown)
VH: QVQLVQSGAEVKKPGSSVKVSCKASGGTFSSYAISWVRQAPGQGLEWMGRIIPILGIANYAQKFQGRVTITADKSTSTAYMELSSLRSEDTAVYYCARGPIAVAGIGPWFDPWGQGTLVTVSS
VL: QSVLTQPPSVSAAPGQKVTISCSGSSSNIGNNYVSWYQQLPGTAPKLLIYDNNKRPSGIPDRFSGSKSGTSATLGITGLQTGDEADYYCGTWDSSLSAVVFGGGTKLTVL
B4: antibody 298 (antibody, V domains shown)
VH: EVQLVESGGGLVQPGGSLRLSCAASGFTVSSNYMSWVRQAPGKGLEWVSVIYSGGSTYYADSVKGRFTISRDNSKNTLYLQMNSLRAEDTAVYYCAREEGEWEKDYYGMDVWGQGTTVTVSS
VL: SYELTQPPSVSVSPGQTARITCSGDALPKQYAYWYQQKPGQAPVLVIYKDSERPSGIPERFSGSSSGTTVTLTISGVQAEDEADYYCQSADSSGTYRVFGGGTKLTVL
B5: antibody 330 (antibody, V domains shown)
VH: QVQLVESGGGVVQPGRSLRLSCAASGFTFSSYAMHWVRQAPGKGLEWVAVISYDGSNKYYADSVKGRFTISRDNSKNTLYLQMNSLRAEDTAVYYCARDFQYYDFWSGYLTVSSPTSYYGMDVWGQGTTVTVSS
VL: NFMLTQPHSVSESPGKTVTISCTGSSGSIASNYVQWYQQRPGSAPTTVIYEDNQRPSGVPDRFSGSIDSSSNSASLTISGLKTEDEADYYCQSYDSSNVVFGGGTKLTVL
B6: antibody 302 (antibody, V domains shown)
VH: QVQLVQSGAEVRKPGASVKVSCKVSGYTLSELSMHWVRQAPGKGLEWMGGFDPEDGERMYAQKFQGRVTMTEDTSTDTAYMELSSLRSEDTAIYYCTTDLSYLWSGKLEPDYWYFALWGRGTLVTVSS
VL: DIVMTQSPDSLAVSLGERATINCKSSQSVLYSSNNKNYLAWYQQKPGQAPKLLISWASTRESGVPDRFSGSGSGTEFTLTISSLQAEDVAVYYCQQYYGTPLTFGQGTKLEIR
B7: antibody 318 (antibody, V domains shown)
VH: QVQLVESGGGVVPPGRSLSLPCAASGFSFSAYAMHWLRQAPGKGLEWVAVISYDGTVKYVADSVRGRFTISRDNSNNTLYLQMTSLRSDDTAVYYCARDLGALAAAPTVYFVHWGQGTLVTVSS
VL: SYVLTQPPSVSVAPGKTATITCAGEDIGRKSVHWYQQKPGQAPVLVIFYYSDRPSGIPDRFSGSVSGNTATLTIGRVEAGDEADYFCQVWDRTTNHVIFGGGTKVTVL
B8: antibody 370 (antibody, V domains shown)
VH: B7 VH with S28T
VL: B7 VL
B9: antibody 308 (antibody, V domains shown)
VH: QLQLQESGPGLVKPSETLSLTCSVSGGSISSSSYHWGWIRQPPGKGLEWIGSIYYSGSTYYNPSLKSRVTISVDTSKNQFSLKLRSVTAADTAVYYCAGLRVVITFGGVIPKGGAFDIWGQGTMVTVSS
VL: QSALTQPASVSGSPGQSITISCTGTSSDVGGYNYVSWYQQHPGKAPKLMIYDVSNRPSGVSNRFSGSKSGNTASLTISGLQAEDEADYYCSSYTSSSTVVFGGGTKLTVL
B10: antibody 258 (antibody, V domains shown)
VH: QVQLQESGPGLVKPSETLSLTCTVSGGSISSYYWSWIRQPAGKGLEWIGRIYTSGSTNYNPSLKSRVTMSVDTSKNQFSLKLSSVTAADTAVYYCAAGYGSIDYWGQGTLVTVSS
VL: not shown
B11: antibody 311 (antibody, V domains shown)
VH: QVQLQESGPGLVKPSETLSLTCTVSGYSISSGYYWGWIRQPPGKGLEWIGSIYHSGSTYYNPSLKSRVTISVDTSKNQFSLKLSSVTAADTAVYYCAREETLGSSWYESYIDYWGQGTLVTVSS
VL: SYVLTQPPSVSVAPGKTARITCGGNNIGSKSVHWYQQKPGQAPVLVIYYDSDRPSGIPERFSGSNSGNTATLTISRVEAGDEADYYCQVWDSSSDHPRVFGGGTKLTVL
B12: antibody 305 (antibody, V domains shown)
VH: QVQLVESGGGVVQPGRSLRLSCAASGFTFSSYAMHWVRQAPGKGLEWVAVISYDGSNKYYADSVKGRFTISRDNSKNTLYLQMNSLRAEDTAVYYCAREQTSYDYVWGTLGAYYYYGMDVWGQGTTVTVSS
VL: SSELTQDPAVSVALGQTVRITCQGDSLRSYYASWYQQKPGQAPVLVIYGKNNRPSGIPDRFSGSSSGNTASLTITGAQAEDEADYYCNSRDSSGNHLVFGGGTKLTVL
B13: antibody 358 (antibody, V domains shown)
VH: QVQLVESGGGVVQPGRSLRLSCAASGFNLNSYAMHWVRQASGKGLEWVSLMSYDGSIKYYADSVKGRFTVSGDNSRNTLFLQMNSLRPDDSALYYCVRGGVSGPNSFDLWGQGTTVTVSS
VL: DVVMTQSPLSLPVTLGQPASISCRSSQSLVYSDGSTYVNWFQQRPGQSPRRLIYKVSNRDSGVPDRFSGSGSGTDFALKISRVEAEDVGVYYCMQGTHWPVTFGQGTKVEIK
B14: antibody 338 (antibody, V domains shown)
VH: QVQLQESGPGLVKPSETLSLTCAVSGYSISSDYYWGWIRQPPGKGLEWIGSIYHSGSTYYNPSLKSRVTISIDTSKNQFSLKLSSVTAADTAVYYCARDPGNYDILTGIFDYWGQGTLVTVSS
VL: QSALTQPASVSGSPGQSITISCTGTSSDVGVYNYVSWYQQHPGKAPKLMIYDVTNRPSGVSNRFSGSKSGNTASLTISGLQAEDEADYYCSSYTSSSTLAVYVFGTGTKVTVL
B15: antibody 307 (antibody, V domains shown)
VH: QVQLVESGGGVVQPGRSLRLSCAASGFTFSSYGMHWVRQAPGKGLEWVAVIWYDGSNKYYADSVKGRFTISRDNSKNTLYLQMNSLRAEDTAVYYCAKGYTWDYYYYGMDVWGQGTTVTVSS
VL: not shown
B16: antibody 353 (antibody, V domains shown)
VH: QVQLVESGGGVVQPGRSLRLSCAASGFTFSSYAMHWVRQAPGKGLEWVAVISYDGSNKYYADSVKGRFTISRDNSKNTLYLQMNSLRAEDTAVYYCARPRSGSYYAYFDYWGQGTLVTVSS
VL: DIQMTQSPSSLSASVGDRVTITCRASQGISNYLAWFQQKPGKAPKSLIYAASSLQSGVPSKFSGSGSGTDFTLTISSLQPEDFATYYCQQYNSYPPTFGGGTKVEIK
B17: antibody 297 (antibody, V domains shown)
VH: QVQLVESGGGVVQPGRSLRLSCAASGFTFSSYAMHWVRQAPGKGLEWVAVISYDGSNKYYADSVKGRFTISRDNSKNTLYLQMNSLRAEDTAVYYCARSFRGGYYYGMDVWGQGTTVTVSS
VL: DIQLTQSPSFLSASVGDRVTITCRASQGISSYLAWYQQKPGKAPKLLIYAASTLQSGVPSRFSGSGSGTEFTLTISSLQPEDFATYYCQQLNSYPLFTFGPGTKVDIK
B18: antibody 261 (antibody, V domains shown)
VH: QVQLVESGGGVVQPGRSLRLSCAASGFTFSSYAMHWVRQAPGKGLEWVAVISYDGSNKYYADSVKGRFTISRDNSKNTLYLQMNSLRAEDTAVYYCARDEAYYDILTGYINAPKNYYYYGMDVWGQGTTVTVSS
VL: DIQMTQSPSSLSASVGDRVTITCRASQGIRNDLGWYQQKPGKAPKRLIYAASSLQSGVPSRFSGSGSGTEFTLTISSLQPEDFATYYCLQHNSYPFTFGPGTKVDIK
B19: antibody 356 (antibody, V domains shown)
VH: QVQLVQSGAEVKKPGASVKVSCKASGYTFTSYGISWVRQAPGQGLEWMGWISAYHGNTNYAQKLQGRVTMTTDTSTSTAYMELRSLRSDDTAVYYCARVGLWWLGHADAFDIWGQGTMVTVSS
VL: B18 VL with F96L, P100G, D105E
B20: antibody 354 (antibody, V domains shown)
VH: QVQLVESGGGVVQPGRSLRLSCAASGFTFSSYAMHWVRQAPGKGLEWVAVISYDGSNKYYADSVKGRFTISRDNSKNTLYLQMNSLRAEDTAVYYCARDRPYYYGSGIPGYYGMDVWGQGTTVTVSS
VL: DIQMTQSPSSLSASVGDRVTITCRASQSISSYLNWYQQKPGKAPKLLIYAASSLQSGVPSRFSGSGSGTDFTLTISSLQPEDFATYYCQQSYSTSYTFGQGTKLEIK
B21: antibody 278 (antibody, V domains shown)
VH: QVQLVQSGAEVKKPGASVKVSCKASGYTFTSYYMHWVRQAPGQGLEWMGIINPSGGSTSYAQKFQGRVTMTRDTSTSTVYMELSSLRSEDTAVYYCARDHSNADPYYDFWSGYYTRTYYYGMDVWGQGTTVTVSS
VL: not shown
B22: antibody 277 (antibody, V domains shown)
VH: QVQLVESGGGVVQPGRSLRLSCAASGFTFSSYAMHWVRQAPGKGLEWVAVISYDGSNTYYADSVKGRFTISRDNSKNTLYLQMNSLRAEDTAVYYCARPYSGSYFNWFDPWGQGTLVTVSS
VL: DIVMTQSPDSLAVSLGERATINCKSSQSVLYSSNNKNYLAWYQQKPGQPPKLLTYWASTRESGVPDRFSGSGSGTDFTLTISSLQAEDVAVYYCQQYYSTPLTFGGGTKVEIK
B23: antibody 291 (antibody, V domains shown)
VH: B17 VH with S99A, F100S, R101G, G103S, Y105F, Y106G
VL: QSALTQPASVSGSPGQSITISCTGTSSDVGGYNYVSWYQQHPGKAPKLMIYEVSNRPSGVSNRFSGSKSGNTASLTISGLQAEDEADYYCSSYTSSSTLYVFGTGTKVTVL
B24: antibody 313 (antibody, V domains shown)
VH: B22 VH with T58K, P99G, Y100L, S101G, F105Y, N106S, W107L, P110Y
VL: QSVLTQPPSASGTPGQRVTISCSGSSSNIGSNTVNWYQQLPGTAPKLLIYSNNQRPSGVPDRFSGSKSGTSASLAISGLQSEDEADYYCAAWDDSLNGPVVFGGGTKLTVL

Biological target: SARS-CoV-2 spike (S) protein (SARS-CoV-2, UniProt P0DTC2 14-1208)

Row | Binder | Kd | koff | kon
1 | B1 | 0.532 nM | 6.43e-05 s⁻¹ | 121000 M⁻¹ s⁻¹
2 | B2 | 1.11 nM | 0.00021 s⁻¹ | 190000 M⁻¹ s⁻¹
3 | B3 | 0.837 nM | 6.53e-05 s⁻¹ | 78000 M⁻¹ s⁻¹
4 | B4 | 0.0225 nM | 1.34e-05 s⁻¹ | 597000 M⁻¹ s⁻¹
5 | B5 | 9.54 nM | 0.00073 s⁻¹ | 76500 M⁻¹ s⁻¹
6 | B6 | 0.726 nM | 7.63e-05 s⁻¹ | 105000 M⁻¹ s⁻¹
7 | B7 | 11.1 nM | 0.0017 s⁻¹ | 152000 M⁻¹ s⁻¹
8 | B8 | 5.55 nM | 0.000986 s⁻¹ | 178000 M⁻¹ s⁻¹
9 | B9 | 0.495 nM | 6.89e-05 s⁻¹ | 139000 M⁻¹ s⁻¹
10 | B10 | 0.996 nM | 8.36e-05 s⁻¹ | 84000 M⁻¹ s⁻¹
11 | B11 | 19.1 nM | 0.000407 s⁻¹ | 21300 M⁻¹ s⁻¹
12 | B12 | 13.8 nM | 0.001 s⁻¹ | 72600 M⁻¹ s⁻¹
13 | B13 | 1.69 nM | 0.000487 s⁻¹ | 289000 M⁻¹ s⁻¹
14 | B14 | 0.882 nM | 4.43e-05 s⁻¹ | 50200 M⁻¹ s⁻¹
15 | B15 | 17 nM | 0.00171 s⁻¹ | –
16 | B16 | 0.0601 nM | 4.09e-05 s⁻¹ | 680000 M⁻¹ s⁻¹
17 | B17 | 1.6 nM | 0.000127 s⁻¹ | 79800 M⁻¹ s⁻¹
18 | B18 | 5.37 nM | 0.000695 s⁻¹ | 129000 M⁻¹ s⁻¹
19 | B19 | 3.65 nM | 9.66e-05 s⁻¹ | 26500 M⁻¹ s⁻¹
20 | B20 | 43.6 nM | 0.00179 s⁻¹ | 41100 M⁻¹ s⁻¹
21 | B21 | 4.78 nM | 0.000862 s⁻¹ | 201000 M⁻¹ s⁻¹
22 | B22 | 0.204 nM | 6.24e-05 s⁻¹ | 305000 M⁻¹ s⁻¹
23 | B23 | 0.117 nM | 5.43e-05 s⁻¹ | 464000 M⁻¹ s⁻¹
24 | B24 | 0.0975 nM | 4.89e-05 s⁻¹ | 502000 M⁻¹ s⁻¹
